Paper PMC6141507, “A plant Bro1 domain protein BRAF regulates multivesicular body biogenesis and membrane protein homeostasis” (Nature Communications, 2018)

Target: T1, His-SUMO-FREE1 (Arabidopsis thaliana, UniProt Q9ASS2 1-601)
T1 construct: FREE1 (FYVE1), Arabidopsis thaliana, locus AT1G20110; also called Sumo-tagged FREE1; not shown: His, N-terminal, kept; SUMO, N-terminal, kept
T1 sequence (looked up): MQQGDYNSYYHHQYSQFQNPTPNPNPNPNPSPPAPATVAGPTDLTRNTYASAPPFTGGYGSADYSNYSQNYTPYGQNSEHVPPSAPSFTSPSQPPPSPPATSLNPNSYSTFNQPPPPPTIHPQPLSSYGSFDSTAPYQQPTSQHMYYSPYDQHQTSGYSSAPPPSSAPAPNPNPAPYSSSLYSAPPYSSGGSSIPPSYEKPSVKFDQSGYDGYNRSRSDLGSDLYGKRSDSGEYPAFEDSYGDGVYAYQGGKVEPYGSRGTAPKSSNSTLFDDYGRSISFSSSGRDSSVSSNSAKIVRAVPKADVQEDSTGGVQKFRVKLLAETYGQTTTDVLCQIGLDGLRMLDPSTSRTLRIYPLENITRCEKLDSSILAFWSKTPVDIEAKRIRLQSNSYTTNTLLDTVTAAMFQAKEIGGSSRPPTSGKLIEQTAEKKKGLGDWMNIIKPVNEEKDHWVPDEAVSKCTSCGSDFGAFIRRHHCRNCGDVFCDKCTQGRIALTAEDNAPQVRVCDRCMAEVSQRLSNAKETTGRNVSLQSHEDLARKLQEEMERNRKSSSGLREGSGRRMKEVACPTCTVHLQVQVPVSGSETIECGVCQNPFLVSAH
Assay: pull-down; competition: in vitro binding assay on amylose resin bound with MBP-Vps23A (or the Vps23A CC domain as bait) with a constant amount of one His-SUMO protein (30 pmol BRAF) and 10, 30, 100 or 300 pmol of the competing His-SUMO protein; immunoblot, quantified
Settings: both partners purified

binding result: binds
B1: MBP-Vps23A (natural protein, Arabidopsis thaliana, UniProt Q9LHG8 1-398, looked up)
chain: MVPPPSNPQQVQQFLSSALSQRGPSSVPYEESNKWLIRQHLLNLISSYPSLEPKTASFMHNDGRSVNLLQADGTIPMPFHGVTYNIPVIIWLLESYPRHPPCVYVNPTADMIIKRPHAHVTPSGLVSLPYLQNWVYPSSNLVDLVSDLSAAFARDPPLYSRRRPQPPPPSPPTVYDSSLSRPPSADQSLPRPFPPSPYGGGVSRVQVQHVHHQQQSDDAAEVFKRNAINKMVEMVHSDLVSMRRAREAEAEELLSLQAGLKRREDELNIGLKEMVEEKETLEQQLQIISMNTDILDSWVRENQGKTKNLVDLDVDNAFECGDTLSKQMLECTALDLAIEDAIYSLDKSFQDGVVPFDQYLRNVRLLSREQFFHRATGSKVRAAQMEVQVAAIAGRLHS
notes: Vps23A/ELC, Arabidopsis thaliana, locus AT3G12400; Vector: in-house pRHisMBP; it may also add a His tag; source: E. coli BL21(DE3) pLysS, purified (amylose resin); not shown: MBP, N-terminal, kept
